From patent US20240117018A1

How the values were obtained:
Test in all cases: cell-based or functional assay
[1] = biological target: HIV-1 Env of pseudovirus C2101.c01 (HIV-1)
[2] = biological target: HIV-1 Env of pseudovirus CNE5 (HIV-1)
[3] = biological target: HIV-1 Env of pseudovirus 0260.v5.c36 (HIV-1)
[4] = biological target: HIV-1 Env of pseudovirus 3365.v2.c2 (HIV-1)
[5] = biological target: HIV-1 Env of pseudovirus 3415.v1.c1 (HIV-1)
[6] = biological target: HIV-1 Env of pseudovirus CNE8 (HIV-1)
[7] = biological target: HIV-1 Env of pseudovirus T250-4 (HIV-1)
[8] = biological target: HIV-1 Env of pseudovirus 1006_11_C3_1601 (HIV-1)
[9] = biological target: HIV-1 Env of pseudovirus 1056_10_TA11_1826 (HIV-1)
[10] = biological target: HIV-1 Env of pseudovirus 246F C1G (HIV-1)
[11] = biological target: HIV-1 Env of pseudovirus 249M B10 (HIV-1)
[12] = biological target: HIV-1 Env of pseudovirus 6240_08_TA5_4622 (HIV-1)
[13] = biological target: HIV-1 Env of pseudovirus 6535.3 (HIV-1)
[14] = biological target: HIV-1 Env of pseudovirus 7030102001E5(Rev-) (HIV-1)
[15] = biological target: HIV-1 Env of pseudovirus BF1266.431a (HIV-1)
[16] = biological target: HIV-1 Env of pseudovirus CAP210.2.00.E8 (HIV-1)
[17] = biological target: HIV-1 Env of pseudovirus CAP45.2.00.G3 (HIV-1)
[18] = biological target: HIV-1 Env of pseudovirus CNE17 (HIV-1)
[19] = biological target: HIV-1 Env of pseudovirus CNE19 (HIV-1)
[20] = biological target: HIV-1 Env of pseudovirus CNE21 (HIV-1)
[21] = biological target: HIV-1 Env of pseudovirus CNE30 (HIV-1)
[22] = biological target: HIV-1 Env of pseudovirus Ce0682_E4 (HIV-1)
[23] = biological target: HIV-1 Env of pseudovirus Ce1086_B2 (HIV-1)
[24] = biological target: HIV-1 Env of pseudovirus Ce1172_H1 (HIV-1)
[25] = biological target: HIV-1 Env of pseudovirus Ce704809221_1B3 (HIV-1)
[26] = biological target: HIV-1 Env of pseudovirus Du156.12 (HIV-1)
[27] = biological target: HIV-1 Env of pseudovirus HIV-001428-2.42 (HIV-1)
[28] = biological target: HIV-1 Env of pseudovirus HIV-16845-2.22 (HIV-1)
[29] = biological target: HIV-1 Env of pseudovirus PVO.4 (HIV-1)
[30] = biological target: HIV-1 Env of pseudovirus Q23.17 (HIV-1)
[31] = biological target: HIV-1 Env of pseudovirus Q259.d2.17 (HIV-1)
[32] = biological target: HIV-1 Env of pseudovirus Q461.e2 (HIV-1)
[33] = biological target: HIV-1 Env of pseudovirus QH0692.42 (HIV-1)
[34] = biological target: HIV-1 Env of pseudovirus SC05_8C11_2344 (HIV-1)
[35] = biological target: HIV-1 Env of pseudovirus SC422661.8 (HIV-1)
[36] = biological target: HIV-1 Env of pseudovirus THRO4156.18 (HIV-1)
[37] = biological target: HIV-1 Env of pseudovirus TRJO4551.58 (HIV-1)
[38] = biological target: HIV-1 Env of pseudovirus ZM249M.PL1 (HIV-1)

Substance: PG9 (antibody)
- IC50 neutralization (TZM.bl) [1]: 0.034 µg/mL
- IC80 neutralization (TZM.bl) [1]: 0.099 µg/mL
- IC50 neutralization (TZM.bl) [2]: 0.018 µg/mL
- IC80 neutralization (TZM.bl) [2]: 0.051 µg/mL

Substance: N49P9 (antibody)
- neutralization IC50 [3]: 0.466 µg/mL
- neutralization IC80 [3]: 1.85 µg/mL
- neutralization MPI [3]: 100
- neutralization IC50 [4]: 0.059 µg/mL
- neutralization IC80 [4]: 0.198 µg/mL
- neutralization MPI [4]: 100
- neutralization IC50 [5]: 0.137 µg/mL
- neutralization IC80 [5]: 0.502 µg/mL
- neutralization MPI [5]: 100
- neutralization IC50 [1]: 0.051 µg/mL
- neutralization IC80 [1]: 0.209 µg/mL
- neutralization MPI [1]: 100
- neutralization IC50 [6]: 0.056 µg/mL
- neutralization IC80 [6]: 0.26 µg/mL
- neutralization MPI [6]: 100
- neutralization IC50 [7]: > 50 µg/mL
- neutralization IC80 [7]: > 50 µg/mL
- neutralization MPI [7]: 25

Substance: 10E8 (antibody)
- IC50 neutralization (TZM.bl) [1]: 1.92 µg/mL
- IC80 neutralization (TZM.bl) [1]: 8.26 µg/mL
- IC50 neutralization (TZM.bl) [2]: 1.41 µg/mL
- IC80 neutralization (TZM.bl) [2]: 9.64 µg/mL

Substance: 3BNC117 (antibody)
- IC50 [8]: 0.03 µg/mL
- IC80 [8]: 0.1 µg/mL
- IC50 [9]: 0.3 µg/mL
- IC80 [9]: 1.82 µg/mL
- IC50 [10]: 19.3 µg/mL
- IC80 [10]: > 50 µg/mL
- IC50 [11]: 0.1 µg/mL
- IC80 [11]: 0.4 µg/mL
- IC50 [4]: 0.03 µg/mL
- IC80 [4]: 0.1 µg/mL
- IC50 [5]: 0.17 µg/mL
- IC80 [5]: 0.47 µg/mL
- IC50 [12]: 0.33 µg/mL
- IC80 [12]: 1.17 µg/mL
- IC50 [13]: 0.55 µg/mL
- IC80 [13]: 2.44 µg/mL
- IC50 [14]: 0.29 µg/mL
- IC80 [14]: 1.44 µg/mL
- IC50 [15]: 0.03 µg/mL
- IC80 [15]: 0.09 µg/mL
- IC50 [16]: 17.2 µg/mL
- IC80 [16]: > 50 µg/mL
- IC50 [17]: 3.88 µg/mL
- IC80 [17]: > 50 µg/mL
- IC50 [18]: 5.76 µg/mL
- IC80 [18]: 43 µg/mL
- IC50 [19]: 0.02 µg/mL
- IC80 [19]: 0.08 µg/mL
- IC50 [20]: 45.4 µg/mL
- IC80 [20]: > 50 µg/mL
- IC50 [21]: 0.26 µg/mL
- IC80 [21]: 0.85 µg/mL
- IC50 [22]: 0.03 µg/mL
- IC80 [22]: 0.15 µg/mL
- IC50 [23]: 0.09 µg/mL
- IC80 [23]: 0.31 µg/mL
- IC50 [24]: > 50 µg/mL
- IC80 [24]: > 50 µg/mL
- IC50 [25]: 0.08 µg/mL
- IC80 [25]: 0.31 µg/mL
- IC50 [26]: 0.02 µg/mL
- IC80 [26]: 0.08 µg/mL
- IC50 [27]: 0.003 µg/mL
- IC80 [27]: 0.02 µg/mL
- IC50 [28]: 27.5 µg/mL
- IC80 [28]: > 50 µg/mL
- IC50 [29]: < 0.09 µg/mL
- IC80 [29]: 0.19 µg/mL
- IC50 [30]: 0.005 µg/mL
- IC80 [30]: 0.02 µg/mL
- IC50 [31]: 0.01 µg/mL
- IC80 [31]: 0.05 µg/mL
- IC50 [32]: 0.03 µg/mL
- IC80 [32]: 0.09 µg/mL
- IC50 [33]: 0.13 µg/mL
- IC80 [33]: 0.49 µg/mL
- IC50 [34]: 0.15 µg/mL
- IC80 [34]: 0.51 µg/mL
- IC50 [35]: 0.02 µg/mL
- IC80 [35]: 0.08 µg/mL
- IC50 [36]: 1.76 µg/mL
- IC80 [36]: 10.1 µg/mL
- IC50 [37]: 0.05 µg/mL
- IC80 [37]: 0.19 µg/mL
- IC50 [38]: 0.03 µg/mL
- IC80 [38]: 0.11 µg/mL
